Results as given in patent US20080242557A1, “System For Detecting Molecular Interactions” (CGK CO., LTD., priority 2004, published 2008).

Columns and labels:
[1] = target: T1, Caspase-3 (Homo sapiens, UniProt P42574); experiment: Magnetic-field translocation of mRFP-Caspase3 by DEVD-MNPs in HeLa cells; assay type: cell-based; details: EGFP expressing cells as negative control showed no motion
T1 construct: mRFP (N); expressed in transfected cells; host or cells: HeLa
T1 sequence (P42574 29-277): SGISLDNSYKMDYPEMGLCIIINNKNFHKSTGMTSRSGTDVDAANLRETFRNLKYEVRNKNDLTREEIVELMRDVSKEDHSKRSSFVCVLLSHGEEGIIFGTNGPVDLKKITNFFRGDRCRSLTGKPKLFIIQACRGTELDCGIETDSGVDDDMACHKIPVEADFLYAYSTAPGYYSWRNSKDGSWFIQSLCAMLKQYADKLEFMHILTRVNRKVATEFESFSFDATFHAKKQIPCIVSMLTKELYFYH
Protocol: A DEVD-MNPs complex was obtained by reacting a Streptavidin nanoparticle, caspase-3 inhibitor II (DEVD)-biotin conjugate (CALBIOCHEM) and TATHA2-biotin at 40 C for 1 hr while agitating the reaction mixture. Unbound ligands were removed from the reaction mixture by purifying the complex using a paramagnet. After introducing mRFP-Caspase3 or EGFP expressing plasmid into a HeLa cell (ATCC), the cell was incubated. The DEVD-MNPs were introduced into the cell, and a magnetic field (M.F.) was externally applied to the cell using a paramagnet or electromagnet. The confocal images were captured using a confocal laser microscope (Carl Zeiss) for the live cells while applying magnetic field as well as not applying magnetic field.

[2] = system: IκBα phosphorylation (IKK); experiment: Detection of IκBα phosphorylation: translocation of IκBα-mRFP with anti-phospho-IκBα (Ser32)-MNPs in HeLa cells; assay type: cell-based; details: HeLa cells treated with various chemical compounds and growth factors

Substance	localization of cells expressing mRFP-Caspase3 by external magnetic force [1]	translocation of the IκBα-mRFP fusion protein under the magnetic field (interaction activator screening) [2]
DEVD-MNPs: Streptavidin nanoparticle reacted with caspase-3 inhibitor II (DEVD)-biotin conjugate and TATHA2-biotin	only the cells (indicated with red arrows) expressing mRFP-Caspase3 were localized	
TNF-α		observed to translocate the IκBα-mRFP fusion protein
